Results on one substance are retold here after patent publication US7070771.

In this assay the target is CD40 (human, on CLL B cells and CD40-positive tumor cell lines) (human) (UniProt P25942). Nature of the assay: cell-based or functional assay.
Sequence of UniProt P25942 (P25942 21-277): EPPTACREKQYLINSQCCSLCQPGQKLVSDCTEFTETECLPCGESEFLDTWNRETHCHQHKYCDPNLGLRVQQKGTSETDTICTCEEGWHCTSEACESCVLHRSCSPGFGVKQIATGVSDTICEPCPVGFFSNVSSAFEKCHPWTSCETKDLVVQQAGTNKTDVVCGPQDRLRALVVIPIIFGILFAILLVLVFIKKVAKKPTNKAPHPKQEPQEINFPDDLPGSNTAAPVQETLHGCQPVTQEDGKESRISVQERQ

Substance “G28-5 (an anti-CD40 monoclonal antibody)” had a % positive cells, Human CD80 (CLL cells) of 26.7%.
